Laboratory results published in US20250122298A1 (OSSIANIX, published 2025).
Substitutions are numbered along the chain they refer to. Numbers in names are those of the source.

Assays:
[1] = target: T1, recombinant human TfR-1 (human, UniProt P02786 89-760, limits assumed); experiment: SPR Biacore T200, His-tagged TfR1 captured by anti-His, multi-cycle kinetics, 1:1 model
T1 construct: also called hTfR-1; hTfR1
Experimental: Binding kinetics. Binding kinetics of TXP1, TXP1D1 and TXP1D4 were determined by surface plasmon resonance (SPR) using a Biacore T200 (GE Healthcare). A His-capture kit (GE Healthcare) was used to immobilize anti-His antibodies on CM5 chips (as recommended by the manufacturer). His-tagged recombinant hTfR1 in 0.1% BSA in HBS-EP+ buffer (GE Healthcare) was captured at flow rate 10 μl/min. Analyte binding was measured using the multi-cycle kinetic SPR method. Starting analyte concentrations at 400 nM and serially diluted in 1:4 in seven steps. Association and dissociation were measured for 360s and 1500s respectively, with flow rate at 30 μl/min. The chips were regenerated in 10 mM Glycine-HCl, pH 1.5. Sensorgrams were fitted using 1:1 binding model and kinetic constants determined using Biacore T200 Evaluation software (Cytiva).

[2] = target: T2, recombinant cynomolgus TfR-1 (cynomolgus, UniProt H9EXL1 89-760 (rhesus entry)); experiment: ELISA, plate-coated recombinant cTfR1, anti-hFc HRP detection
T2 construct: also called cTfR-1; cTfR1
T2 sequence (chain, as listed by the source): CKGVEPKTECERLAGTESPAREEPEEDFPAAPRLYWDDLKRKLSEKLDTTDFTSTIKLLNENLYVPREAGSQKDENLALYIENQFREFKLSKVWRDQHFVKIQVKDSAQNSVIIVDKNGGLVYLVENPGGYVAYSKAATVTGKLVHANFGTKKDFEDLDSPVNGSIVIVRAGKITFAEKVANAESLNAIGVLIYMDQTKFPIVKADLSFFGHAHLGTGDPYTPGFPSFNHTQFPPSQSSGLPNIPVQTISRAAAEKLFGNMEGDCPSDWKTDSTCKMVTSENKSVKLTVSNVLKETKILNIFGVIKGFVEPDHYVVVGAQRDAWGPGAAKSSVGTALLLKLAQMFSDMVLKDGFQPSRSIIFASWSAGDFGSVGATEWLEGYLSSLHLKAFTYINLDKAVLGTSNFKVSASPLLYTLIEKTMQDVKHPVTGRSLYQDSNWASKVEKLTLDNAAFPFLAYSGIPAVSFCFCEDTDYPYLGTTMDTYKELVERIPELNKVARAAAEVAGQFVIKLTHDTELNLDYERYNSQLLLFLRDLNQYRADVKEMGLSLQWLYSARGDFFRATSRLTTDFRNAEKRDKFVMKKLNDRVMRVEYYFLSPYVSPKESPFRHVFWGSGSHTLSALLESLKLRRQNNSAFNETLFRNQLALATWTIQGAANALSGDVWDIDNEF
Experimental: (§1) TfR1 ELISA. Nunc MaxiSorp plates were coated with 100 ul of 1 μg/ml of in-house purified recombinant human, cynomolgus TfR1 or HSA and incubated at 4° C. overnight. Plates were incubated with blocking buffer (2.5% non-fat dry milk in PBST) for 1 hr at RT. Serial dilutions of TXP1, TXPID1 or TXP1D4 were mixed with non-fat dry milk in PBST to a final concentration of 2.5% and incubated for 30 min. Blocked VNAR antibody solutions (100 μl) were transferred to the blocked plates and incubated for 1 hr. Plates were washed with PBST and incubated with anti-hFc HRP-conjugated antibody diluted 1:5,000 (Sigma) in blocking buffer for 30 min. Plates were washed and developed with SureBlue TMB substrate. Were indicated the velocity of colorimetric reaction development was measured in the kinetic mode at 370 nm and the maximum peak was used for quantitation (Vmax at 370 nm). Alternatively, the TMB reaction was stopped with 1% HCl and absorbance was measured at 450 nm (OD at 450 nm).

[3] = target: T2, recombinant cynomolgus TfR-1; experiment: SPR Biacore T200, His-tagged TfR-1 captured by anti-His, single cycle kinetics, 1:1 model
Experimental: (§2) Binding kinetics. Binding kinetics of TXP1 and A06 VNAR antibodies were determined by surface plasmon resonance (SPR) using a Biacore T200 (GE Healthcare). A His-capture kit (GE Healthcare) was used to immobilize anti-His antibodies on CM5 chips (as recommended by the manufacturer). His-tagged recombinant cynomolgus and human TfR-1 in 0.1% BSA in HBS-EP+ buffer (GE Healthcare) was captured at flow rate 10 μl/min. Analyte binding was measured using the single cycle kinetic SPR method on a Biacore T200. Analytes were injected at increasing concentrations (0.98, 3.9, 15.6, 62.5 and 250 nM) in HBS-EP+ at flow rate 30 μl/min. A flow cell without TfR-1 captured served as a reference. The chips were regenerated in 10 mM glycine-HCl, pH 1.5. Sensorgrams were fitted using 1:1 binding model and kinetic constants determined using Biacore T200 Evaluation software (GE Healthcare). Association and dissociation were measured for 360s and 1500s respectively, with flow rate at […].

[4] = target: T1, recombinant human TfR-1; experiment: as above
Experimental: as §2

[5] = target: T3, recombinant rat TfR-1 (rat, UniProt Q99376 87-761, limits assumed); experiment: ELISA, plate-coated recombinant TfR-1, anti-hFc HRP detection
T3 construct: also called rTfR-1
T3 sequence (Q99376 87-761 limits assumed): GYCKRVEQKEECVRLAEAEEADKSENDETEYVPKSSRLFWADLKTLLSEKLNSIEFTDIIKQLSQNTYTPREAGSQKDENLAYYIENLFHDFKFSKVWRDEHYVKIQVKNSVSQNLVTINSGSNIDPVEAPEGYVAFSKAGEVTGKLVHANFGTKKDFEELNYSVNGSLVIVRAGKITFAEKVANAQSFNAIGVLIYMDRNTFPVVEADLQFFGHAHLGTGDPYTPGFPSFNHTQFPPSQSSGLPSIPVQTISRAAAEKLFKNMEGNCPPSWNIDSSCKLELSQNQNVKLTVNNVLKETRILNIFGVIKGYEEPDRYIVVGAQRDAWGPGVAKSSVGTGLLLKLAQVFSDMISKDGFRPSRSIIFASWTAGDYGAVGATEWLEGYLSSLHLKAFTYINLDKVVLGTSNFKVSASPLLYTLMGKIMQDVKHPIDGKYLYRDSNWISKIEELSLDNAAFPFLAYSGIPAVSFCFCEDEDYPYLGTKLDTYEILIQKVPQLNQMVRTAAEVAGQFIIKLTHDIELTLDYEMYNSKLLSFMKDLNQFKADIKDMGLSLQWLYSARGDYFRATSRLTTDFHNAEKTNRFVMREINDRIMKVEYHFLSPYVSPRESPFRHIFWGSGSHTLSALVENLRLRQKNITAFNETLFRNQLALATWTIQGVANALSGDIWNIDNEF
Experimental: (§3) TfR-1 binding ELISA. Nunc MaxiSorp plates were coated with 100 μl of 1 μg/ml of in-house purified recombinant human, mouse, rat and cynomolgus TfR-1 and incubated at 4° C. overnight. Plates were incubated with blocking buffer (2.5% non-fat dry milk in PBST) for 1 h at RT. Serially-diluted TXP1 was mixed with non-fat dry milk in PBST to a final concentration of 2.5% and incubated for 30 min. Blocked TXP1 solutions (100 μl) were transferred to the blocked plates and incubated for 1 hr. Plates were washed with PBST and incubated with anti-hFc HRP-conjugated antibody diluted 1:5,000 (Sigma) in blocking buffer for 30 min. Plates were washed and developed with SureBlue™ TMB substrate, the reaction stopped with 1% HCl and absorbance measured at 450 nm.

[6] = target: T2, recombinant cynomolgus TfR-1; experiment: as above
Experimental: as §3

[7] = target: T1, recombinant human TfR-1; experiment: as above
Experimental: as §3

[8] = target: T4, recombinant mouse TfR-1 (mouse, UniProt Q62351 89-763, limits assumed); experiment: as above
T4 construct: also called mTfR-1
T4 sequence (Q62351 89-763 limits assumed): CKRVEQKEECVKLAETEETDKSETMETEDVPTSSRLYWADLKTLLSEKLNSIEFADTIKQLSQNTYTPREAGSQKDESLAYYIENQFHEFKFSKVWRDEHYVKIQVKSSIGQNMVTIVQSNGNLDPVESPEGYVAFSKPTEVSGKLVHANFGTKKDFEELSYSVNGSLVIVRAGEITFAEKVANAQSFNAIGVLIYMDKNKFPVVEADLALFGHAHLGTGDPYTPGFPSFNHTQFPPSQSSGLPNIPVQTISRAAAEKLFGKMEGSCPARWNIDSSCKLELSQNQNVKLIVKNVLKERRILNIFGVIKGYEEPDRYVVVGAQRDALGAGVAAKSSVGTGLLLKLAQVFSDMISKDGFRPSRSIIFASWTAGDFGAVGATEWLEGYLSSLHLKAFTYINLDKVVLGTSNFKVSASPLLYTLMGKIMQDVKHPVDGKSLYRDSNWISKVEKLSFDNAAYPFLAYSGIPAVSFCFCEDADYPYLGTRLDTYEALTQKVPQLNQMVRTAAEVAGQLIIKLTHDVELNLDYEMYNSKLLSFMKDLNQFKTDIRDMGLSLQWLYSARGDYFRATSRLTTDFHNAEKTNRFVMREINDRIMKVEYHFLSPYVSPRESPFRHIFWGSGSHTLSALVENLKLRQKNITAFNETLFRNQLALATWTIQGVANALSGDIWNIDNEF
Experimental: as §3

[9] = target: T1, recombinant human TfR-1; experiment: ELISA, plate-coated recombinant hTfR1, anti-hFc HRP detection
Experimental: as §1

[10] = target: T5, HSA (human, UniProt P02768 25-609); experiment: ELISA, plate-coated HSA as negative control, anti-hFc HRP detection
T5 construct: also called human serum albumin (negative control)
T5 sequence (P02768 25-609 limits assumed): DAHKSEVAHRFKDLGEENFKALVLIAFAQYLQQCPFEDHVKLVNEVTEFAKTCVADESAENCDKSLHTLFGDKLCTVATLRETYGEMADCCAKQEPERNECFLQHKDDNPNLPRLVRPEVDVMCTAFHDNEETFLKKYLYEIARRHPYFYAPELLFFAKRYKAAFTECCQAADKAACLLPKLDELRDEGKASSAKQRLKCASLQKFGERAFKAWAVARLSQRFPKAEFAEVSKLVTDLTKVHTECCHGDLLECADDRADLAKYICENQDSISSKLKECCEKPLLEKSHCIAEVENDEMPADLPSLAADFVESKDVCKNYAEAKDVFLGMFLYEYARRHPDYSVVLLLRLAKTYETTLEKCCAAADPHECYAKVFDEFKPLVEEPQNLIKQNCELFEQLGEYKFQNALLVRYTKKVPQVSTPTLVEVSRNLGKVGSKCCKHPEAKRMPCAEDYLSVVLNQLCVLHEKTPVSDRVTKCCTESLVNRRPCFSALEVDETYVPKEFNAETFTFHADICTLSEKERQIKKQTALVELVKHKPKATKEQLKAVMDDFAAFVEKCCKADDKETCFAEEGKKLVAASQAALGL

[11] = target: T6, cell surface human TfR1 on hCMEC/D3 and SH-SY5Y cells (human, UniProt P02786 1-760); experiment: flow cytometry on hCMEC/D3 cells on ice, binding to cell surface TfR1, anti-hFc Alexa647
T6 construct: whole, on cells; Endogenous receptor on the cell lines; also called cell surface TfR1; cell-surface hTfR1
T6 sequence (P02786 whole entry): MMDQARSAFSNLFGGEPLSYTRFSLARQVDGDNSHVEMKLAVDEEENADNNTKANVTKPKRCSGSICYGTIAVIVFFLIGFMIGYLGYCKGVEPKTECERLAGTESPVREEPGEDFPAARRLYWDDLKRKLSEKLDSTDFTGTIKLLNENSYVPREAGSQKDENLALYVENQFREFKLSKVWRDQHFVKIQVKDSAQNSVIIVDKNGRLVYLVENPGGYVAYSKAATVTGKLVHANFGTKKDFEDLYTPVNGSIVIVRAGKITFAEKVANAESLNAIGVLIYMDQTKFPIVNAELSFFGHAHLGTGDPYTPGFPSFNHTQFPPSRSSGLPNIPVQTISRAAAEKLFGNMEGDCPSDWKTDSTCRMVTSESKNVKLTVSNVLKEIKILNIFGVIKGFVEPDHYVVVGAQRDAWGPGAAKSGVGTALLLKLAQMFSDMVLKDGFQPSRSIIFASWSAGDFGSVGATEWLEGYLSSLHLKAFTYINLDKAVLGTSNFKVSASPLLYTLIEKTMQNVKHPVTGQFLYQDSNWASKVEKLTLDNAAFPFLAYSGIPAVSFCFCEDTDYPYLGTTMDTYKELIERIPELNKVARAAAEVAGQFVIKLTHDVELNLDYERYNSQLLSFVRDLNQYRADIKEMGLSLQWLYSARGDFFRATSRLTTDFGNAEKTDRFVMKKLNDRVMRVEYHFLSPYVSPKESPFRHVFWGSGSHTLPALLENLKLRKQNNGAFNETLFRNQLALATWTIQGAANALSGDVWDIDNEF
Experimental: Functional activity of the fully deimmunized variants was assessed using the hCMEC/D3 human endothelial cell line and the SY-SH5Y human neuronal cell line. Binding to hCMEC/D3 cells was assessed by incubation with serial antibody dilutions for 1h on ice to avoid internalization. The cells were fixed and binding to cell surface TfR1 was measured by flow cytometry. […] Internalization via cell-surface hTfR1 was assessed using the hCMEC/D3 and SY-SH5Y cell lines by incubation with the antibodies for 1 hour at 37° C.
Flow cytometry. hCMEC/D3 cells were seeded onto V-bottom 96-well plates at a density of 1×10⁴ cells/well. All incubations were carried out on ice to prevent internalization. After blocking in PBS containing 10% BSA (FACS buffer), cells were incubated with serial dilutions of TXP1. Cells were stained with propidium iodine (PI; Biolegend) for 20 min, followed by anti-hFc conjugated to Alexa647 diluted 1:300 (Jackson ImmunoResearch) for 30 min. After fixation in 4% PFA for 15 min, the cells were analyzed on a CytoFlex flow cytometer (Beckman Coulter). Gating of cells stained with secondary antibody alone was used to set the negative threshold for and the fluorescence intensity of approximately 1000 cells per condition was measured. EC50 values were calculated using a four parametric non-linear regression model.

[12] = target: T2, recombinant cynomolgus TfR-1; experiment: SPR Biacore T200, multi-cycle kinetics, 1:1 model
[13] = target: T1, recombinant human TfR-1; experiment: ELISA on coated hTfR1, crude ExpiHEK expression media, normalised to TXP1
Experimental: FIG. 6. Expression level and hTfR1 binding of 20 single-region variants of TXP1 measured by ELISA. Variants were designed to remove potential MHCII binding motifs in each region separately with the mutations described in Table 5. Each deimmunized variant was transiently expressed in 0.5 ml scale in ExpiHEK cells and the crude media were tested by ELISA for hTfRIbinding and expression level in comparison to parental TXP1. The data were normalized to TXP1 and the variants with binding or expression >0.5-fold were evaluated further.
Mutating the primary anchoring residue in each MHCII binding motif was prioritized to minimize manipulation of the sequence with maximal reduction in binding score. Alternative positions were also considered when replacement of an anchor residue might disrupt the protein structure or where removing the anchor residue was insufficient to eliminate MHCII binding. Based on the in silico analyses, 20 single-region deimmunized variants of TXP1 (6 in region 1, 10 in region 2, and 4 in region 3) were genetically synthesized and evaluated (Table 5). Expression and hTfR1 binding were measured in crude media from transfected ExpiHEK cells (FIG. 6). […] Region 3 required all three substitutions to eliminate predicted MHCII binding, and all three mutations individually and when combined (TXP1-R3-1-4) were expressed well and retained parental levels of TfR-1 binding.

T1 sequence (P02786 89-760 limits assumed): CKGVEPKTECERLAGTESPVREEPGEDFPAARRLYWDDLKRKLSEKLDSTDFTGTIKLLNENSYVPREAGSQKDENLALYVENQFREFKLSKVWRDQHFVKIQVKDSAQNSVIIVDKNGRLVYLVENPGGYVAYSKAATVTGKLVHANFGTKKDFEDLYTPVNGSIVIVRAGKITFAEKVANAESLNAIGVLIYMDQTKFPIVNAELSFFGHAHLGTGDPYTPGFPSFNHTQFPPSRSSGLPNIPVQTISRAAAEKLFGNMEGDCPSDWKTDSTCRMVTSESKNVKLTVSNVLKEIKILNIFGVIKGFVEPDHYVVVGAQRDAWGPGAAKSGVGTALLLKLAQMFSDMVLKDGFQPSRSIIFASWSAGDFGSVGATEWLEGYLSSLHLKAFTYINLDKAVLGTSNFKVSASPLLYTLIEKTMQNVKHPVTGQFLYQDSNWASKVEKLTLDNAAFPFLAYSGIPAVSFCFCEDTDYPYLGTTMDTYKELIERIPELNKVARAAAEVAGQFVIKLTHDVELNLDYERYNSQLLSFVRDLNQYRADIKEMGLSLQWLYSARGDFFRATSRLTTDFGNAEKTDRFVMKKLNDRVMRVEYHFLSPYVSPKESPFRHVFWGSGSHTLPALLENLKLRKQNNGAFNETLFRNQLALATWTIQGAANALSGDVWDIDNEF

B1: TXP1 (Fc fusion)
chain: ARVDQTPQTITKETGESLTINCVLRDSNCALSSTYWYRKKSGSTNEENISKGGRYVETVNSGSKSFSLKINDLTVEDSGTYRCNVVGTWCMSWRDVYGGGTAVTVNA
notes: Bivalent VNAR-hFc; VNAR at the N-terminus of hFc IgG1; also called VNAR-hFc named TXP1; parental TXP1; not shown: human IgG1 Fc domain (hFc) with attenuated effector function mutations E233P/L234V/L235A/AG236 (deletion of G236)+A327G/
B1 showed a Kd [1] of 5.1 nM, a koff [1] of 0.00027 s⁻¹ and a kon [1] of 54000 M⁻¹ s⁻¹. It also gave an EC50 [2] of 1.4 nM, a Kd [3] of 3.14 nM and a koff [3] of 0.000365 s⁻¹. For the same binder, the kon [3] was 116000 M⁻¹ s⁻¹, the Kd [4] was 1.03 nM and the koff [4] was 0.000134 s⁻¹. The kon [4] was 129000 M⁻¹ s⁻¹, the binding result [5] was “no binding” and the EC50 [6] was 1.6 nM. The EC50 [7] was 1.5 nM, the binding result [8] was “no binding” and the EC50 [9] was 1.9 nM. For the same binder, the binding result [10] was “no binding”, the EC50 [11] was 2.2 nM and the Kd [12] was 1.8 nM. It also gave a koff [12] of 9.6e-05 s⁻¹ and a kon [12] of 53000 M⁻¹ s⁻¹.

B2: TXP1-R2-2 (Fc fusion)
chain: B1 chain with Y55H
notes: Single-region variant of TXP1; tested in crude expression media; not shown: human IgG1 Fc (hFc) with AEF mutations incl. deletion of G236 (printed AG236)
B2 was tested, and the “hTfR1 binding relative to parental TXP1 (fold)” value [13] was 0.5 fold.

B3: TXP1-R2-5 (Fc fusion)
chain: B1 chain with Y55T
notes: as for B2
In the case of B3, the “hTfR1 binding relative to parental TXP1 (fold)” value [13] is reported as 0.5 fold.

B4: TXP1-R1-4 (Fc fusion)
chain: B1 chain with I10T
notes: as for B2
B4 was tested, and the “hTfR1 binding relative to parental TXP1 (fold)” value [13] was 0.5 fold.

B5: TXP1-R2-9 (Fc fusion)
chain: B1 chain with R54K, N60E
notes: as for B2
B5 was tested, and the “hTfR1 binding relative to parental TXP1 (fold)” value [13] was 0.5 fold.

B6: TXP1-R2-10 (Fc fusion)
chain: B1 chain with R54K, N60Q
notes: as for B2
With B6 the “hTfR1 binding relative to parental TXP1 (fold)” value [13] was 0.5 fold.

B7: TXP1-R1-2 (Fc fusion)
chain: B1 chain with I10E
notes: as for B2
For B7, the “hTfR1 binding relative to parental TXP1 (fold)” value [13] was 0.5 fold.

B8: TXP1-R2-3 (Fc fusion)
chain: B1 chain with Y55N
notes: as for B2
In the case of B8, the “hTfR1 binding relative to parental TXP1 (fold)” value [13] is reported as 0.5 fold.

B9: TXP1D1 (Fc fusion)
chain: B1 chain with I10A, N60D, S63T, Y97S, G99D, A102V
notes: Fully deimmunized variant of TXP1, VNAR-hFc format; also called TXPID1; not shown: human IgG1 Fc (hFc) with AEF mutations incl. deletion of G236 (printed AG236)
With B9 the Kd [1] was 4.6 nM, the koff [1] was 0.00031 s⁻¹ and the kon [1] was 67000 M⁻¹ s⁻¹. The EC50 [2] was 2.2 nM, the EC50 [9] was 3.5 nM and the EC50 [11] was 1.6 nM. It also gave a Kd [12] of 2.2 nM, a koff [12] of 0.00016 s⁻¹ and a kon [12] of 73000 M⁻¹ s⁻¹.

B10: TXP1-R1-3 (Fc fusion)
chain: B1 chain with I10S
notes: as for B2
For B10, the “hTfR1 binding relative to parental TXP1 (fold)” value [13] was 0.5 fold.

B11: TXP1-R1-1 (Fc fusion)
chain: B1 chain with I10A
notes: as for B2
B11 was tested, and the “hTfR1 binding relative to parental TXP1 (fold)” value [13] was 0.5 fold.

B12: TXP1-R2-4 (Fc fusion)
chain: B1 chain with Y55S
notes: as for B2
For B12, the “hTfR1 binding relative to parental TXP1 (fold)” value [13] was 0.5 fold.

B13: TXP1-R2-6 (Fc fusion)
chain: B1 chain with N60D, S63T
notes: as for B2
With B13 the “hTfR1 binding relative to parental TXP1 (fold)” value [13] was 0.5 fold.

B14: TXP1D4 (Fc fusion)
chain: B1 chain with I10A, R54K, N60E, Y97S, G99D, A102V
notes: Fully deimmunized variant of TXP1, VNAR-hFc format; also called TXPID4; not shown: human IgG1 Fc (hFc) with AEF mutations incl. deletion of G236 (printed AG236)
B14 was tested, and the Kd [1] was 3 nM, the koff [1] was 0.00026 s⁻¹ and the kon [1] was 87000 M⁻¹ s⁻¹. For the same binder, the EC50 [2] was 3 nM, the EC50 [9] was 4.1 nM and the EC50 [11] was 2.1 nM. The Kd [12] was 1.7 nM, the koff [12] was 0.00014 s⁻¹ and the kon [12] was 87000 M⁻¹ s⁻¹.
